Patent US20230218735A1 (Pfizer, published 2023)

B1: hCDIFA-29 (antibody, V domains shown)
VH: EVQLLESGAEVKKPGASIRVSCKASGHSFTDSFTDYYFHWVRQAPGQGLEWMGMINPSVGSTNYAQKFQGRVTLTRDTSTHTVYMELSSLRSEDTAVYFCARDPWFCSRGTSCYYFGLWGQGTLVTVSS
VL: DIQLTQSPSSLSASVGDSVTITCRASQSISTYLNWYQQKPGKAPKLLIYDASSLLSGVPSRFSGGGSGTDFTLTISSLQPEDFATYYCQQSDISPPVFGRGTKVEIKR
B2: hCDIFA-33 (antibody, V domains shown)
VH: QVQLVQSGGGLVQPGGSLRLSCVASGFTFSSYAMTWVRQAPGMGLEWVSTISLSGSTIYYADSVKGRFTISRDNPKNTLYLQMNSLRAEDTAVYYCAEGQGAFDFWGQGTMVTVSS
VL: NFMLTQPPSASGTPGQRVTISCSGSTSNIGGNTVNWYQQLPGTAPKLLIYSNIQRPSGVPDRFSGSKSGTSASLAIRGLRSEDEADYYCSTWDDSRKGVVFGGGTKLTVLG
B3: hCDIFA-48 (antibody, V domains shown)
VH: QVQLVQSGAEVKKPGASVKVSCKASGYTFTTYAMHWVRQAPGHRLEWMGWINPVNGNSKHSQNFQGRVTITRDTSASTVYMELSSLRSEDTAVYYCARDTSSGVILANNFDYWGQGTLVTVSS
VL: DIVMTQSPATLSLSPGERATLSCRASQSVDSYLTWYQQKPGQAPRLLIYDSSNRATGIPARFSGSGSGTDFTLTISSLEPEDFAVYYCHQRSNWPNTFGQGTKVEIKR
B4: hCDIFA-26 (antibody, V domains shown)
VH: EVQLLESGAEVKKPGESLRISCNCSGYSFTSYWIGWVRQMPGEGLEWMGLIQPGGDSYPRYSPSFQGQVTISADKSISTAYLQWRSLKASDTAMYYCARRGFDHWGQGTLVTVSS
VL: NFMLTQPPSASGAPGQRVTISCSGSSSNIGSNTVNWYQQLPGTAPKLLIYSNIQRPSGVPDRFSGSKSGTSASLAISGLQSDDEADYYCSAWDDSLNGYVFGTGTKVTVLG
B5: hCDIFA-22 (antibody, V domains shown)
VH: QVQLVQSGGGLVQPGGSLRLSCSASGFTFSSYAMHWVRQAPGKGLEYVSAISSNGGSTYYADSVKGRFTISRDNSKNTLYLQMSSLRAEDTAVYYCVRAAAGNWFDPWGQGTLVTVSS
VL: AIRMTQSPSSVSASVGDRVTITCRASQGISSWLAWYQQKPGKAPKLLIYAASSLQSGVPSRFSGSGSGTDFTLTISSLQPEDFATYYCQQANSFPLTFGGGTKVDIKR
B6: hCDIFA-30 (antibody, V domains shown)
VH: EVQLVESGAEVKRPGASVKVSCRTSAYAFTNYFMHWVRQAPGQGLEWVAVINLSGGNTNYAQSFQGRVNMTRDTSTSTVYMELSSLRSEDTAVYFCAIGGIWFGEYPNWFDPWGQGTLVTVSS
VL: NFMLTQPPSVSAAPGRKVTVSCSGSSSNIGNNYVSWYQQFPGTAPKLLIYDNNKRHSGIPARFSGSKSGTSATLGITGLQTGDEADYYCATWDSSLKYVVFGGGTKLTVLG
B7: hCDIFA-34 (antibody, V domains shown)
VH: QVQLVESGGDLIQPGESLRLSCVASGFTVGSHYMTWVRQAPGKGLEWVSTIYSGGTTKYADSVKGRFTISRDNSKNTLFLQMNSLRTEDTAVYFCARGSAFSSSWWLVDFWGQGTLVTVSS
VL: SYELTQPPSVSVAPGKTARITCEDNYVGGNNVHWYQQKPGQAPVLVVSDDNARPSGIPERVSGSKSGNTATLIINRVEVGDEADFYCQVWDSSRDRVLFGGGTKLTVLG
B8: hCDIFA-28 (antibody, V domains shown)
VH: QVQLVQSGAQVKKPGSSVKVSCKASGYAFISYGITWVRQAPGQGLEWMGWISAYNGDTNYAQKFQGRVTMTTDTSTNTAYMELRSLRSDDTAVYYCARALTRVAVALPHPYWGQGTLVTVSS
VL: not shown
B9: hCDIFA-3 (antibody, V domains shown)
VH: EVQLVESGGGVVQPGRSLRLSCAASGFTFSSYAMHWVRQAPGKGLEWVAVISKDGDNKYYTDPLKGRFTISRDNSKNTLYLQMISLRGEDTAVYYCARDLNIWSGYYLRTINYYMDVWGKGTTVTVSS
VL: DIVMTQSPSFLSASVGDRVTITCRASQGIRNDLGWYQQKPGKAPKLLIYAASTLQSGVPSRFSGSGSGTEFTLTISSLQPEDFATYYCQQPGSHPPFGGGAKLEIKR
B10: hCDIFA-12 (antibody, V domains shown)
VH: QVQLVQSGAEVKKPGASVKVSCKASGYTFSDSYMHWVRQAPGQGLEWMGRINPNSGGTNYAQKFQGRVTMTRDTSIKTVYMELSRLRSDDGAIYYCARGMGRTTTGLFDLWGQGTLVTVSS
VL: DIVMTQSPATLSLSPGERATLSCKANESVGSYLVWYQQKFGQAPRLLIYDASNRATGIPARFSGSGSGTDFTLTISSLEPEDFAVYYCQQRSNWPPTFGGGTKVDIKR
B11: hCDIFA-23 (antibody, V domains shown)
VH: QVQLVQSGGGVVQPGRSLRLSCAASGFTFSQYSIHWVRQAPGKGLEWVAVMSYDGRNKYYADSVKGRFTISGDNSRNTLYVQMNSLRAEDTAIYYCARDLIKAAMVPAFDIWGQGTMVTVSS
VL: TALTQPRSVSGSPGQSVTISCTGTNSDVADYNYVSWYQHHPGKAPKLMIYDVTKRPSGVPDRFSGSKSGNTASLTISGLQAEDEADYYCCSYAARYTFGGGTKLTVLG
B12: hCDIFA-2 (antibody, V domains shown)
VH: QVQLVESGGGLVQPGGSLRLSCAASGFTFSSYAMSWVRQAPGKGPEWVSNIIGSGGSTYFTDSVKGRFTISRDNSKNTVYLQMNSLRAEDTAVYYCAKEGCRGYDSGNYFAPKMFCLWGQGTLVTVSS
VL: NFMLTQPASVSGSPGQSITISCTGTSSDIGAYNYVSWYQQHPGTAPKLMIYEVSHRPSGVSNRFSGSKSGDTASLTISGLQAEDEADYYCSSYTTSITYVFGTGTKLTVLG
B13: hCDIFA-39 (antibody, V domains shown)
VH: QVQLQESGPGLVKPSETLSLTCTLSGGSISSDNYYWGWVRQPPGKGLEWIGSIYYSGSTYYNPSLKSRVFISVDMSKNQFSLKLSSVTAADTAVYYCARHTQGLGILRYFDWWTRPFDYWGQGTLVTVSS
VL: DIQMTQSPSSLSASVGDRVTITCRASQNINTYLSWYRQKPGKAPELLIYAASNLQSGVPSRFSGSGSGTDFTLTIHSLQPEDFATYYCQQSYTTLTFGGGTKVEIKR
B14: hCDIFA-38 (antibody, V domains shown)
VH: QVQLVESGPALVKPTQTLTLTCTFSGFSLSSIGMCVSWIRQPPGKALEWLARIDWDDSKYYSPSLQARLAISKDTSKNQVVLTMTNVDPMDAGTYYCARTSATLTGPSRVFDYWGQGSLVTVSS
VL: DVVMTQSPATLSVSPGERATLSCRASQSVRFNLAWYQQKPGQAPRLLISGASTRATGIPARFSGSGSGTEFTLTISSLQSEDFAVYYCQQYNNWPPLTFGGGTKVEIKR
B15: hCDIFA-18 (antibody, V domains shown)
VH: QVQLVQSGAEVKKPGASVKVSCKASGYTFTSYAMHWVRQAPGQRLEWMGWINAGNGNTKYSQEFQGRVTITRDTSASTAYMELSSLRSEDMAVYYCARAHLPGYCSSTSCYIMYVWGKGTTVTVSS
VL: not shown
B16: hCDIFA-41 (antibody, V domains shown)
VH: QVQLQESGPGLVKPSQTLSLTCTVSGDSISSNQYYWTWIRQPAGKGLEWIGQIESAYFTNYNPSLKGRVTISGDASKNVLSLTLTSVTAADTALYWCAREAGGGLGYCTGGRCQFSGYYYYGLDVWGQGTTVTVSS
VL: QSALTQPPSVSAAPGQTVTISCSGSHSNIGNNYVSWYQQLPGTAPRRLIYDTDKRPSGIPDRFSGSKSGTSATLVITGLRAGDEADYYCGTWDGSLSAGVFGGGTKLTVLG
B17: hCDIFA-20 (antibody, V domains shown)
VH: EVQLVQSGAEVRIPGASVKVSCKASGFTFNDYYIHWVRQAPGQGLEWMGWINAHNGVTSYAQNFQDRVTMTRDTSITTAYMDLSRLRSDDTAVYYCARDCSTSSCFDHWGQGSLVTVSS
VL: SYELTQPPSLSVAPGKTAKITCGGNNIGSKGVHWYQQRPGQAPVLVIYYNADRPSGIPERFSGSNSGNTATLTISRVEAGDEADYFCQVWDGDSAHRVFGGGTKLTVLG
B18: hCDIFA-14 (antibody, V domains shown)
VH: EVQLVQSGAEVKKPGSSVKVSCKASGGTFRSYAISWVRQAPGQGLEWMGGFIPIPGIRNYAQKFQGRLTISADESTSTGYMELSSLTSEDTAVYYCARGLGRVSHYFYYMDVWGKGTTVTVSS
VL: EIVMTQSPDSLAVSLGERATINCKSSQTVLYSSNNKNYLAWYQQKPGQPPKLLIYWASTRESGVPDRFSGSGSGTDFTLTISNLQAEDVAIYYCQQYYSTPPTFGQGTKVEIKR
B19: hCDIFA-16 (antibody, V domains shown)
VH: QVQLQESGPGLVKPSETLSLTCTVSGDSISDYYWSWIRQPPGRGLEWIGYIYYSGSTNYNPSLKSRLTISVDTSKNQFSLNLSSVTAADTAVYYCARSMGHYDFWNTYFPCFDPWGQGTLVTVSS
VL: EIVMTQSPGTLSLSPGERATLSCRASQSVSSGYLAWYQQKPGQAPRLLIYGASSRATGIPDRFRGSGSGTDFTLTISRLEPEDFAVYYCQQYGSSPLTFGGGTKLEIKR
B20: hCDIFA-36 (antibody, V domains shown)
VH: QVQLVQSGGGLVQPGRSLRLSCAASGFAFDDYALHWVRQVPGKGLEWVSGISWNSDSIAYADSVKGRFTISRDNAKNSLYLQMNGLRAEDTALYYCAKDRTIASAGIPDEFQHWGQGTLVTVSS
VL: DIVMTQSPATLSVSPGERATLSCRASQSVSYKVAWYQQKPGQAPRLLIYGASTRDTGIPARFSGSGSGTDFTLTISSLQSEDSAVYYCQQYSNWPTTFGQGTKVEIKR
B21: hCDIFA-13 (antibody, V domains shown)
VH: QVQLVQSGAEVKKPGASVTVSCRTSGYTFTNDYVHWVRQAPGQGLEWVGLINPSGGNTVYAQSFQGRVTMTRDTSTSTVYMELSSLRSEDTAVYYCARVVHDYGKFDPWGQGTPVTVSS
VL: SYELTQPASVSGSPRQSITISCTGTSSDVGNYNLVSWYQQYPGKAPRLIIFEVRQRPSGVSNRFSGSKSGNTASLTISGLQAADEADYYCCSYAGRSIWVFGGGTKLTVLG

Biological target: T1, genetically modified and chemically inactivated C. difficile toxoid A (Clostridium difficile, UniProt P16154 2-2710)
T1 construct: also called TxdA; the toxoid
Assay: ITC

Row | Binder | DH | Kd | Stoichiometry
1 | B1 | -15.6 kcal/mol | 74 nM | 9.2
2 | B2 | -3 kcal/mol | 31 nM | 0.83
3 | B3 | -7.2 kcal/mol | 87 nM | 0.77
4 | B4 | -9.1 kcal/mol | 8 nM | 1.98

Biological target: C. difficile toxin A (Clostridium difficile, UniProt P16154 1-2710)
Assay: cell-based or functional assay

Row | Binder | EC50 TcdA [RLU], toxin neutralization assay (TNA) on IMR90 cells
5 | B5 | ~16 RLU
6 | B6 | 1480 RLU
7 | B7 | 247 RLU
8 | B8 | 25800 RLU
9 | B9 | 199000 RLU
10 | B10 | ~115 RLU
11 | B11 | 136 RLU
12 | B12 | ~38 RLU
13 | B13 | 400 RLU
14 | B14 | 10500 RLU
15 | B15 | 1330 RLU
16 | B16 | 673 RLU
17 | B17 | 3200 RLU
18 | B18 | 19800 RLU
19 | B19 | 298 RLU
20 | B20 | 426000 RLU
21 | B21 | 26300 RLU
